Test results as given in the supplement of paper PMC7125110.
± gives the standard error. Fewer inactive variants are shown than the library holds.

B1: glmS ribozyme (parent)
chain: AUAAAAGCGCCAGAACUACAGAAAUGUAGUUGACGAGGAGGAGGUUUAUCGAAUUUUCGGCGGAUGCCUCCAAA

Variants of: B1
Experiment: self-cleavage kobs at 2500 uM GlcN6P; higher = faster cleavage; RNA array
Settings: with glucosamine-6-phosphate
Outline: (§1)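 A hybridised Cy3 probe tracked barcoded ribozyme variants, transcribed in situ by E. coli RNA polymerase on sequenced MiSeq chips, at 37 °C. The variants received 40 μM to 10 mM glucosamine-6-phosphate in HEPES/KCl/Mg(OAc)2 buffer. kobs came from decay fits and kcat and KM from weighted Michaelis–Menten fits.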

Variant | self-cleavage kobs at 2500 uM GlcN6P [s⁻¹]
C10A U47G G59U C68U | 5.63e-05 ± 1.7e-05
G9U G38C G40U G43C | < 1e-05
G29A G41A | 6.8e-05 ± 2e-05
C34A A36C G37U G51U | < 1e-05
C10A C16G C50A C58G C61U | 6.15e-05 ± 1.9e-05
A12G U56G C70G | 0.000113 ± 3e-05
C16A A36C U49A U65G | < 1e-05
A33G G38U G44A C67G C71U | < 1e-05
A12C U30A G60A | < 1e-05
A24C G26U G40U | 0.00202 ± 0.00051
C11U G44C A52U G60C | < 1e-05
A12U G13C U56G C67U | < 1e-05
G32C A39G A53G G62A | < 1e-05
A15C A39U U49A C50U A52G A53C | < 1e-05
C10A A42G U55G C67U | < 1e-05
A12U C34U C71U | < 1e-05
A33C G40U G62A C70G | < 1e-05
U31A U46C | 0.000756 ± 0.00018
C11G U49C C70U | < 1e-05
C16G G59U G60C C68G | < 1e-05
A12C G37U A52G | < 1e-05
U31G U45C | 0.000406 ± 0.00014
U31C U56C C70G | < 1e-05
A12G C68A C71A | < 1e-05
A12C A15U G41A A53C C58U U65A | < 1e-05
A12C A14G G40C U56G C68U | < 1e-05

Variant | self-cleavage kobs at 2500 uM GlcN6P [s⁻¹]
A14C U46G C70A | 0.000308 ± 9.2e-05
A12G A53G G63C | < 1e-05
A33C U56G | 5.24e-05 ± 2.2e-05
A15U U55G C58U C70G | 6.29e-05 ± 2.7e-05
A33G U47G G66A | < 1e-05
A12U A39U G40A | 0.00415 ± 0.0015
U30C U45G C70U | 7.88e-05 ± 1.9e-05
A33C U56C C71A | < 1e-05
C16G U30C A33C C68U | < 1e-05
G13C U30C G35C G40U U47C C50A | < 1e-05
U30G U55A C61G C71G | 5.45e-05 ± 2.4e-05
A14C A36U G59U | < 1e-05
C11U U46G A52U G66A | < 1e-05
G9A G37C G38C | < 1e-05
A14G A42C U49C | < 1e-05
G13U U45A U46A C58U | 6.89e-05 ± 3.4e-05
C11A U54C C58A G66C | < 1e-05
A15G A33U G40U G41A | < 1e-05
A14G A15C C71A | 0.00262 ± 0.00058
G9C A52U C58U | < 1e-05
U31G G32U C71U | 0.000775 ± 0.00015
C16U U31C U46C C70U | 0.000342 ± 0.00015
U30A A36U C71A | < 1e-05
A33G U46A G59C C67G C68G | 4.87e-05 ± 2.1e-05
A12U G29C A36U G44U C61G | < 1e-05
U31G G32U C58U | 8.74e-05 ± 2.9e-05

Variant | self-cleavage kobs at 2500 uM GlcN6P [s⁻¹]
A12U A36C G59U U65A | < 1e-05
A15G U31G U47G | 0.000803 ± 0.00015
C11A A12G G44U C71A | < 1e-05
G32A U45G G51C | < 1e-05
A12C A33G | < 1e-05
G29C G43U G62C | < 1e-05
U30C U31C A53U U55A | 0.00034 ± 7.2e-05
G9U G32A A33C | < 1e-05
G32C G35U G41C C58A A64G | < 1e-05
C10U A15G U31A G32U U65G | < 1e-05
G29U U57A | 4.22e-05 ± 1.5e-05
A14G U55G C68A | 0.000208 ± 5.1e-05
A12G A42U U69A | 0.000849 ± 0.00021
A14G G37U G44U | < 1e-05
C19A U31C U45G | 0.000156 ± 4.3e-05
G13C A33G G35A A48G A64G | < 1e-05
C11U A14G C70G | 0.000303 ± 5e-05
C10A G40A U47C A48G C70U | < 1e-05
C11A C16A A42C | < 1e-05
G13A A36U G40A | < 1e-05
A12U A33C G43A C67U | < 1e-05
C11G A12C A48C | < 1e-05
G29C A42G C67G | 0.000111 ± 5.1e-05
A15U G44U C71U | < 1e-05
G29A U30A A53G U65G | 6.03e-05 ± 1.7e-05

Variants of: B1
Experiment: self-cleavage kobs at 10000 uM GlcN6P; higher = faster cleavage; RNA array
Settings: with glucosamine-6-phosphate
Outline: as §1

Variant | self-cleavage kobs at 10000 uM GlcN6P [s⁻¹]
G29A G41A | 5.78e-05 ± 1.5e-05
A12G U56G C70G | 7.52e-05 ± 2e-05
A12C U30A G60A | < 1e-05
A24C G26U G40U | 0.00158 ± 0.00035
C10A A42G U55G C67U | < 1e-05
A33C U56G | 5.35e-05 ± 1e-05
A15G A33U G40U G41A | < 1e-05
U30A A36U C71A | < 1e-05
A12C A33G | < 1e-05
A12G A42U U69A | 0.00112 ± 0.00029
C11U A14G C70G | 0.000165 ± 3.1e-05
A15U G44U C71U | < 1e-05
